The record followed here is publication doi:10.1101/2023.10.18.562911.

The target in test [1] is full-length GST-Rfa1 (S. cerevisiae) (UniProt P22336). Briefly: MST.
The target in test [2] is full-length GST-yKu70 (S. cerevisiae) (UniProt P32807). Briefly: MST.
UniProt P32807, sequence (P32807 whole entry): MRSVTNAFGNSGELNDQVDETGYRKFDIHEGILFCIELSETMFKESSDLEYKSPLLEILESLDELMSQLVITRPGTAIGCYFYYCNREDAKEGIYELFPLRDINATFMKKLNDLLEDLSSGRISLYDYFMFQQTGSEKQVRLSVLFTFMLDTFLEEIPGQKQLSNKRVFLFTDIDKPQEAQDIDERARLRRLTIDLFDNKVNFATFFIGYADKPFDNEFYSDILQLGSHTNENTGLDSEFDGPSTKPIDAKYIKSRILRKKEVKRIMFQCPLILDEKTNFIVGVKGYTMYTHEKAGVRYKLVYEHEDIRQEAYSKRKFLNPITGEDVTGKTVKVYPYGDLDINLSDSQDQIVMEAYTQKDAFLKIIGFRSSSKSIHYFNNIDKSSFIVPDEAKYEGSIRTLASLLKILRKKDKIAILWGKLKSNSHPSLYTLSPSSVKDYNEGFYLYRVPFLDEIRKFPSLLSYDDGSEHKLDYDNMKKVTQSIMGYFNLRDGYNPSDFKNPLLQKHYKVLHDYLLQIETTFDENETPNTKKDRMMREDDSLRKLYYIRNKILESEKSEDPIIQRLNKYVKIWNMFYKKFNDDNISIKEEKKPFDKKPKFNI

UniProt P22336, sequence (P22336 whole entry): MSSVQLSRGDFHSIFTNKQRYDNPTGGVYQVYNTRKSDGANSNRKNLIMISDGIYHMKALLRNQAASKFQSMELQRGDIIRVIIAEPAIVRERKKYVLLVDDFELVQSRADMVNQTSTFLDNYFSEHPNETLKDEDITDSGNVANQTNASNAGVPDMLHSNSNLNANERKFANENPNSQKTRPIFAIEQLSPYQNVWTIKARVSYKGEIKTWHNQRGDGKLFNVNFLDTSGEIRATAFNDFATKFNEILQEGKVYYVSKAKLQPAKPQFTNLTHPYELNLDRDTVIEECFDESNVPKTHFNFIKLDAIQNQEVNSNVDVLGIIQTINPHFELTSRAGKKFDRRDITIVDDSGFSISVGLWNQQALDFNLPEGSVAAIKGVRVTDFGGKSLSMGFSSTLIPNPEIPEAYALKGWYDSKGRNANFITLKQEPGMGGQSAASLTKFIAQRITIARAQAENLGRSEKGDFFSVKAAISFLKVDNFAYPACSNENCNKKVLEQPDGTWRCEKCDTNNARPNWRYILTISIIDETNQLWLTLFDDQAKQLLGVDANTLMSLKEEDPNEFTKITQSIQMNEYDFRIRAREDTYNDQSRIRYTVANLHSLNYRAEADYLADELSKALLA

“yeast Y149F^me3 nucleosomes (from UniProt P61830 1-136) (complex)” registered a Kd in test [1] of 1000 nM.
“yeast Y236F^me2 nucleosomes (from UniProt P61830 1-136) (complex)” had a Kd in test [2] of 1200 nM.
Consider “native chicken erythrocyte nucleosomes (complex)”, for which the Kd came out at 1000 nM in test [1] and 1200 nM in test [2].

One may read the Kd as the concentration at which binding is half-saturated. The low end stands for tighter binding, the high end for weaker binding.
